Laboratory results as given in publication PMC3956856, “Interaction of Kinase-Interaction-Motif Protein Tyrosine Phosphatases with the Mitogen-Activated Protein Kinase ERK2” (PLoS ONE, 2014).

Legend:
[1] = biological target: T1, ERK2 (Rattus norvegicus, UniProt P63086); details: [17], cited from earlier work; for Kd: ERK2, values previously published, ref [14], [15], [18]; for tighter binding to ERK2 than to p38α: HePTP residues 15–339 and HePTP KIM-peptide residues 15–31, ref [16]
T1 construct: gene Mapk1; made in house
Description: Over the last years different groups, including ours, have studied the interaction of MAPK regulatory proteins, as well as substrates, with different MAPKs, especially ERK2, p38 and JNK [12]–[17]. However, while a plethora of cell biological data is available, much less systematic interaction data using quantitative methods, such as isothermal titration calorimetry (ITC), has been reported. This is of special interest, as recent studies have shown that while KIM-peptides derived from KIM-containing regulatory proteins and substrates readily discriminate between ERK2/p38 and JNK, they discr ... || We used ITC measurements to determine the binding affinity of STEP and PTPSL for unphosphorylated ERK2 ( Table 1; Figure S1). […] This complex has a ∼3-times lower Kd (tighter binding) than the next tightest complex, ERK2:PTPSL, and a nearly 70-fold greater affinity than the weakest complex, p38α:HePTP [15]. Like STEP, PTPSL binds ERK2 more tightly (∼3.5-fold) than p38α. We also tested peptides that include the kinase specificity s ... || Figure 3 Regulatory protein-MAPK interaction strengths. The binding strengths of each KIM-PTP (KIM peptides and KIM-containing MKBDs (in orange font), light blue; KIMKIS peptides, light purple; proteins, light pink) to p38α and ERK2 represented from weakest to tightest (largest Kd to smallest Kd) binding affinity; ‘^†’ indicates values previously published, [15], [17], [18]. KIM-PTP:MAPK complexes determined to be extended using SAXS written in normal text; KIM-PTP:MAPK complexes determined to be compact written in italics; *, compact nature of the ERK2-PTPSL complex determined by ...

[2] = biological target: T1, ERK2; assay: Isothermal titration calorimetry with ERK2; format: binding
Protocol: The PTPSLKIM peptide (residues 331–348), STEPKIM (residues 213–229) and STEPKIMKIS (residues 213–256) were synthesized, HPLC purified and verified by mass spectrometry (MS) (>98% purity; Biosynthesis, Inc.). Expression and purification of ERK2 and PTPSLKIMKIS (residues 332–373) was carried out as previously described, [15]. PTPSL (residues 332–655, human), STEP (residues 213–539, mouse) and PSChimera (PTPSL residues 332–373 with STEP residues 257–539; gene synthesized by DNA 2.0) were expressed and purified using the protocol previously described in detail for STEPCAT (residues 244–539). The DUSP16 MAPK binding domain (residues 5–138, human) was expressed and purified as previously described. All purified proteins were stored at −80 °C until use at which point they were thawed and exchanged into the appropriate buffer using size exclusion chromatography (SEC; Superdex 75 26/60; GE Healthcare). The final protein buffer was dependent on the experiment performed. For ITC experiments, the final SEC purification was performed in ITC buffer (10 mM Tris pH 7.5, 150 mM NaCl, 0.1 mM EDTA, 0.5 mM TCEP); for SAXS experiments, the final SEC purification was performed in SAXS buffer (50 mM HEPES pH 6.8, 150 mM NaCl, 5 mM dithiothreitol). PTPSLKIM, STEPKIM and STEPKIMKIS peptides were solubilized in ITC buffer prior to ITC measurements.
ITC experiments were performed at 25 °C using a VP-ITC microcalorimeter (Microcal Inc.). Titrant (10 μL per injection) was injected into the sample cell over a period of 20 seconds with a 250 second interval between titrations to allow for complete equilibration and baseline recovery. 28 injections were delivered during each experiment and the solution in the sample cell was stirred at 307 rpm to ensure rapid mixing. To determine the thermodynamic parameters (ΔH, ΔS, ΔG) and binding constants (K) of the ERK2:PTPSLKIM, ERK2:PTPSL, ERK2:STEP and ERK2:PSChimera interactions, PTPSLKIM, PTPSL, STEP and PSChimera were titrated into ERK2. To determine the same parameters for the ERK2:STEPKIM, ERK2:PTPSLKIMKIS and ERK2:STEPKIMKIS interaction, ERK2 was titrated into the peptides. Titrants were chosen based on the amount of purified protein/peptide available for the experiment. For all titrations the concentrations were slightly varied to ensure independence of the Kd from the protein/peptide concentrations. Data were analyzed with a one-site binding model assuming a binding stoichiometry of 1∶1 using Origin 7.0 software. A nonlinear least-squares algorithm and the titrant and sample cell concentrations were used to fit the heat flow per injection to an equilibrium binding equation, providing values of the stoichiometry (n), change in enthalpy (ΔH) and binding constant (K). All data were repeated in triplicate.

[3] = biological target: p38α; details: ref [14], cited from earlier work; for Kd: values previously published, [15], [17], [18]
Description: We used ITC measurements to determine the binding affinity of STEP and PTPSL for unphosphorylated ERK2 ( Table 1; Figure S1). […] This complex has a ∼3-times lower Kd (tighter binding) than the next tightest complex, ERK2:PTPSL, and a nearly 70-fold greater affinity than the weakest complex, p38α:HePTP [15]. Like STEP, PTPSL binds ERK2 more tightly (∼3.5-fold) than p38α. We also tested peptides that include the kinase specificity s ... || We also generated a chimeric protein in which we fused the PTPSLKIMKIS to STEPCAT (PSchimera; Figure 1A ). […] Thus, they only adopt a single conformation when they bind their respective MAPKs. This is different from the MAPK-binding domains (MKBD) of MAPK phosphatases (MKP; dual specificity phosphatases; DUSPs), [26]. In MKPs, the KIM sequence is part of a stable, folded domain and thus adopts a single, ordered conformation in both the unbound and MAPK-bound states, [28]. […] Our ... || (+ 1 further places)

[4] = biological target: T1, ERK2; details: ref [16], cited from earlier work
[5] = biological target: T2, extracellular signal-regulated kinase 2 (ERK2), unphosphorylated (UniProt P63086 1-358); assay: ITC; ERK2 titrated into STEPKIM, PTPSL KIMKIS or STEP KIMKIS in the cell; 25 °C; 10 mM Tris pH 7.5, 150 mM NaCl, 0.1 mM EDTA, 0.5 mM TCEP; one-site model; triplicate; details: both partners purified
T2 construct: ERK2 (extracellular signal-regulated kinase 2), unphosphorylated; also called MAPK; source: final SEC (Superdex 75 26/60)

[6] = biological target: T2, extracellular signal-regulated kinase 2 …; assay: ITC; PTPSLKIM, PTPSL, STEP or PSChimera titrated into ERK2 in the cell; 25 °C; 10 mM Tris pH 7.5, 150 mM NaCl, 0.1 mM EDTA, 0.5 mM TCEP; one-site model; triplicate; details: both partners purified
[7] = tested on: p38α; details: NMR spectroscopy; ref [14]; cited from earlier work
Description: Although there are a few structural differences between ERK2 and p38α in this region (e.g., the activation loop is six residues longer in ERK2), nearly all residues that that we sh ... || The KIM domains of KIM-PTPs are intrinsically disordered in solution [14], [15]. Thus, they only adopt a single conformation when they bind their respective MAPKs. This is different from the MAPK-binding domains (MKBD) of MAPK phosphatases (MKP; dual specificity phosphatases; DUSPs), [26]. In MKPs, the KIM sequence is part of a stable, folded domain and thus adopts a single, ordered conformation in both the unbound and MAPK-bound states, [28]. […] Our ...

[8] = ERK2:HePTP resting-state complex

Molecule: HePTPKIMKIS: HePTP KIMKIS peptide, values previously published (VRLQERRGSNVALMLDVRSLGAVEPICSVNTPREVTLHFLRT)
- Kd [1]: 679 ± 122 nM

Molecule: HePTPKIM: HePTP KIM-peptide (residues 15–31) (TLSLGAAMTQPPPEKTP; KIM peptide; UniProt P35236 15-31, looked up, fragment) [reference compound]
- differences in affinity of KIM peptides for ERK2 versus p38α ([2]; KIM peptides of the KIM-PTPs): 4.0
- Kd [1]: 1280 ± 110 nM
- tighter binding to ERK2 than to p38α [1]: ~4 times
- Kd [3]: 5150 ± 1290 nM

B1: HePTP: HePTP (residues 15–339), hematopoietic protein tyrosine phosphatase (protein, UniProt P35236 15-339, looked up, fragment)
chain: TLSLGAAMTQPPPEKTPAKKHVRLQERRGSNVALMLDVRSLGAVEPICSVNTPREVTLHFLRTAGHPLTRWALQRQPPSPKQLEEEFLKIPSNFVSPEDLDIPGHASKDRYKTILPNPQSRVCLGRAQSQEDGDYINANYIRGYDGKEKVYIATQGPMPNTVSDFWEMVWQEEVSLIVMLTQLREGKEKCVHYWPTEEETYGPFQIRIQDMKECPEYTVRQLTIQYQEERRSVKHILFSAWPDHQTPESAGPLLRLVAEVEESPETAAHPGPIVVHCSAGIGRTGCFIATRIGCQQLKARGEVDILGIVCQLRLDRGGMIQTAEQ
- Kd [1]: 371 ± 40 nM
- tighter binding to ERK2 than to p38α [1]: ~7 times
- maximum dimension (Dmax) [4, 8]: 110 Å
- radius of gyration (Rg) [4, 8]: 33.3 Å
- shape of the complex with ERK2 (in words) ([4]; resting-state complex, SAXS): highly extended in solution
- Kd [3]: 2570 ± 650 nM

B2: STEP KIMKIS peptide (STEP residues 213-256) (peptide, UniProt P54830 213-256, looked up)
peptide: MGLQERRGSNVSLTLDMCTPGCNEEGFGYLVSPREESAHEYLLS
notes: STEP (PTPN5), residues 213-256 (KIM and KIS); mouse is stated for the STEP 213-539 construct; source: synthetic peptide (Biosynthesis, Inc.), HPLC purified, >98% purity
- Kd [5]: 123 nM

B3: PS_(Chimera) (PTPSL residues 332-373 with STEP residues 257-539) (other, human | mouse, UniProt Q15256 332-373, looked up)
chain: GLQERRGSNVSLTLDMSSLGNIEPFVSIPTPREKVAMEYLQSASRVLRAEELHEKALDPFLLQAEFFEIPMNFVDPKEYDIPGLVRKNRYKTILPNPHSRVRLTSPDPEDPLSSYINANYIRGYSGEEKVYIATQGPIVSTVADFWRMVWQERTPIIVMITNIEEMNEKCTEYWPEEQVVHDGVEITVQKVIHTEDYRLRLISLRRGTEERSLKHYWFTSWPDQKTPDRAPPLLHLVREVEEAAQQEGPHCSPIIVHCSAGIGRTGCFIATSICCQQLRREGVVDILKTTCQLRQDRGGMIQTCEQYQFVHHAMSLYEKQLSLQS
notes: PTPSL (PTPRR), residues 332-373 (KIM and KIS); human is stated for the PTPSL 332-655 construct; STEP (PTPN5), residues 257-539 (catalytic domain); mouse is stated for the STEP 213-539 construct; Chimera of PTPSL KIMKIS fused to STEPCAT; source: gene synthesized by DNA 2.0; final SEC
- relative binding to ERK2 (in words) ([2]; ERK2, ITC): binds to ERK2 with about equal binding strength as STEP
- TΔS ([2]; unphosphorylated ERK2, ITC, 25 °C, 10 mM Tris pH 7.5, 150 mM NaCl, 0.1 mM EDTA, 0.5 mM TCEP, average and standard deviation, triplicate): -8.5 ± 0.7 kcal/mol
- relative binding to p38α (in words) [3]: binds marginally more tightly to p38α than any of the WT-KIM-PTPs
- Kd [6]: 47 nM
- dH [6]: -18.5 kcal/mol

B4: PTPSL KIMKIS (PTPSL residues 332-373) (peptide, UniProt Q15256 332-373, looked up)
chain: GLQERRGSNVSLTLDMSSLGNIEPFVSIPTPREKVAMEYLQS
notes: PTPSL/PTPBR7 (PTPRR), residues 332-373 (KIM and KIS); human is stated for the PTPSL 332-655 construct; Recombinant, not synthetic; source: final SEC
- Kd [5]: 825 nM

B5: STEPCAT: STEPCAT (residues 244–539), catalytic domain of STEP (protein, UniProt P54829 244-539, looked up, fragment)
chain: GSNVSLTLDMCTPGCNEEGFGYLMSPREESAREYLLSASRVLQAEELHEKALDPFLLQAEFFEIPMNFVDPKEYDIPGLVRKNRYKTILPNPHSRVCLTSPDPDDPLSSYINANYIRGYGGEEKVYIATQGPIVSTVADFWRMVWQEHTPIIVMITNIEEMNEKCTEYWPEEQVAYDGVEITVQKVIHTEDYRLRLISLKSGTEERGLKHYWFTSWPDQKTPDRAPPLLHLVREVEEAAQQEGPHCAPIIVHCSAGIGRTGCFIATSICCQQLRQEGVVDILKTTCQLRQDRGGMI
modifications: catalytic domain
notes: STEPCAT (residues 244–539), catalytic domain of STEP
- interaction with p38α by NMR (in words) [7]: interacts directly with p38α

B6: PTPSLKIM peptide (PTPSL residues 331-348) (peptide, UniProt Q15256 331-348, looked up)
peptide: IGLQERRGSNVSLTLDMS
notes: PTPSL/PTPBR7 (PTPRR, PTP STEP-like), residues 331-348 (KIM); human is stated for the PTPSL 332-655 construct; source: synthetic peptide (Biosynthesis, Inc.), HPLC purified, >98% purity
- Kd [6]: 463 nM
- dH [6]: -23.5 kcal/mol

B7: STEPKIM peptide (STEP residues 213-229) (peptide, UniProt P54830 213-229, looked up)
peptide: MGLQERRGSNVSLTLDM
notes: STEP (PTPN5, striatal enriched protein tyrosine phosphatase), residues 213-229 (KIM); mouse is stated for the STEP 213-539 construct; source: synthetic peptide (Biosynthesis, Inc.), HPLC purified, >98% purity
- Kd [5]: 546 nM
